From the PETadex activity labels

Substrate: BHET
Conditions: 120 h

| Protein | plate clearing |
| --- | --- |
| unnamed (protein) MKKSILEKIAVGTGALLFSVSAFSFTPSPTPDPDPDPDPTPCQGECDFTRGPNPTSSYLEASRGPYTVRNVSVSRSVSGFGGGTIHYPTNTTGTMGAIAIVPGFLAGESSISWWGPRLASHGFVVITIATNSTFDQPASRETQLGRALDYLVSQSNSSSSPISGKVDSARLGAMGWSMGGGGTLRLASGSRLVAAIPLAPWHSGSNNFNRIQTPTMIIACENDTTAAVRSHASPFYNSIPSSTDKAFLEINNGSHSCANGGGSNGGLLGKYGVSWMKRFMDQDTRYNQFLCGPNHAANSAISEYRETCNY | not clears the plate |
| unnamed (protein) MPMYKLNHVFFAVALAACSALGCAEGSDGSTVSTGGDGVGGGAGETDLPAGAGGTAGVGGAAGSVDPSDIAGTGGSAGTAGETVAGSSGVPVAGTGGIPVAGSGGTGIVDSGGIGGGGAGGTLENNNFIRGPAPTAQSASQAGPYDVQSTTQGLRDPAEYGTQTLWYPTDAEPPFAAIAIVPGFVSPEGSIANWGPFLASHGIVVLTIGTNTGGDLPEVRSAALLAALDTIKAEHTRQGSPIEGKIDTGKLAVGGWSMGGGGTLLTITAHPELKAGLGICPWYMNAFAFAGNTVPVIMFAGTMDVLAGGMSQGFYDAIPASTPKMLFEIAGADHFYANDPLNVANPFTVQVGLYGLSWLKVFLEGDDRYRQFLLNPPQNASDFRTTVK | not clears the plate |
| unnamed (protein) MPDADTGRRANRCGAGNPAEGNPVITTRKRLVRRLAALVLVAFALVACDIKGPDPTDAILTASSGPFGVGTLAVPTSAGFGGGTIYYPTGVDGPFAVISVAPGFTETASAVAEWGPRLASHGFVTIVFNTSNTFENPSTRSTEQRQALTYTINQSNTAGSPIAGLVDGNRRGVAGHSMGGGGTLISEQADSTIRAGVPLAPWNTSPDFPDITVPTLFLACQNDSIAPVANHASPMYESIPATTHKSFVSFAGGDHFCANSPTGGSSNAGKFAVAFFKKFLDGDTRYDPWVCGASKPAVNSAINEVRSTCPF | not clears the plate |
| unnamed (protein) MHETNTRVRAGRACGCARAVRRVERGRVGRGRCLMRYRAFAWWWVCACLLLACGDTSGGNADETGPVTGQQPAAGASGQSASGTGGGTPAMPMSGGTSAGSAGRAGSAGMPPPAAGMGSMAGEGGTAGTDADAGASGVGGSAGGTSGVGGSAGSAGEGPDPEGPDPTTESASRAGPLNVESIPWTEFRNGPDFAGGTIWYPTDGEPPYPFVAIVPGFTAYESSIRSWGPFLASHNIVAITIDTNTTADQPPTRAAALLDALESVAAENSRSGSPLMDKLDESRQALMGWSMGGGGTLIAANRTPSLKAAISLCGWNPLGSYSMMTVPSLMFASLGDPLAGGQSQGFYRSIPDTTPKMLIEAGVADHFVANNPAYLNGLIGRYGLSWLKVFMVGDERYRQFLLEMPQGTTDYASNVE | not clears the plate |
| unnamed (protein) MRKLLRRGPMRLLAVGLVIAVGVLATACDWRGPEPSDQLLTGTGPFGIGTISVPASAGFGGGTIYYPTGNPGPFAVVSFSPGFLEQSGAFPGWGNKLASHGFVAILFNTSNTGEFPDARSTEQRQALTYVINQGQNPSSPIFGLVDGNRTAVMGHSMGGGASLISAQADHTIDAVIPVAPWNGGTNFSGITSPTLVVACQSDSTAPVNSHASPFYNSIPSTTKKEYLSVAGGDHFCANDPSLVGGGNIGKYAVAFLKRWLDTDTRYDPWTCGASKATAGSVFNEVRSTCPW | not clears the plate |
| unnamed (protein) MQRQTCTTPVGPFHPQETSPMTLTSTLQRFAGIRPFALALPLAAIGWVAQAQTNPPTSSLLNATAGPLTVSTSSVSSFAARGFGGGTIYYPDATGSYGVVAISPGYTARQSSIAWLGRRLATHGFVVITIDTNSTLDQPPSRATQLMAALGHVVNNANATVRSRVDASKQAVAGHSMGGGGSLIAAQNNPTLKAAYPLTPWSVSKNYGTVRVPTMIIGADGDTIAAVTTHSRAFYNSLSSTVFKAYGELNNASHFTPNSTNTPIGRYAVSWMKRFVDSDTRYSPFLCGAPHDSYATRTVFDRYERNCPY | not clears the plate |
| unnamed (protein) MRPTRCPSRATSPLRSRSRVLAVLIVMATTLASTLLTVSVTPAATAARQSQSRSVAGSSSEHASVRATIPDPTTASLEATNGPLAIATYTVPQPSGYGSGTITYPTARGSYPAVVLMPGYQGTQQNLQWVAPRLASWGFIVINVGTKTLGDDPASRGRQISAAGTQLLSLGSVAGNPLYGKMNGTLGAAGHSMGGGGVMAALREDSRFTAGMPLAPYYPNQNFSGVTDPTFFLTCKSDPVAHGNTYALPWYNSMSQAEKLYIEVPGDHLCPMTGYGNKAKQGKWIVSFFSRWLYGDTRFSPFLCGAAREADKNNPSLVTRWQDTCPF | not clears the plate |
| unnamed (protein) MRSSHVRIKKDKRATRMRSAPVSAREPTSARRVTHAQRADPLDRQRRQPMRFQQHASRLIKASILGSLVVLSAAATAQTNPFARGPNPTASALEATSGPFTVRNFTVSRPSGYGAGTVYYPTNAGGTVGAIAIVPGYTARQSSINWWGPRLASHGFVVITIDTNSTLDQPGSRSSQQMAALRQVVSLNGTSSSPIYNKVDTSRLGVMGWSMGGGGSLISAANNPSLKAAAPQAPWNTSTNFSSLTVPTLIFACENDSIAATRSHASPMYNSMRNNPRQYLEITRGSHSCANSGNSDRGLLGKKGVAWMKRYMDNDTRYTTFACQNPNTSRVSDFRVANCS | not clears the plate |
| unnamed (protein) MKTIARWQRRCAVGLGLLLLAAAAQSQTNPFQKGPDPTSTILNATAGPFAVATASVPSSVAGFGGGTVYYPTTAGSYAALALCPGFTATQSSIAWIGRRLATHGFVVITINTNSTFDQPPSRATQLMAALRYLTNSSSTTVRSRIDANRLGVGGHSMGGGGTLMATRDNPSLKVGIPMTPWSSTKSFSTVRVPTIIFGGENDTVAPVSSHSIPFYTSLPSSLDKAYAELNGASHFAPNSTNTPIGRYAVSWAKRFMDNDTRYDTFLCGSAHTAFATPAVFSDYRSTCPY | not clears the plate |
| unnamed (protein) MRALLSPTRRRLMTRVSTLSTLPLRRVLCSLALSAVAAAASAQTAPPTSASLNATAGPLAVSSVAISGATGFGGGTIYYPQAAGSYGVIAISPGYGARGSSLAWLARRLATHGFVVAAINTTSTMDSPPSRGPQLMAALDHVVNKADANVRSRADGSRMAVMGHSAGGGGALVAARDNPTLKAAVALTPGSFGNFYSGVRVPTIIFGADGDTITPVTSQARPAYNSIPVTTPKAYGELNNATHLTPVSTNTPIGRYSVAWAKRFVDGDTRYS | not clears the plate |
| unnamed (protein) MATFNQLMHWSLAGLAVSMLGACGGGGGGGTPDAPPVMTPAPLPAPIPAPLPPLPPPPPAPTACTTSCRGADPTPASVEADAGPYAVATLALTQANGAAAMVYYPTGSSESFGAVVTMPGWDGDQSNLQWLGPRLASNGFVVINVDTPARRGDFPDARARFGVQALDQVVTLSATPGNALSGKVDAARLGMVGHSMGGGAALVAARDHPGLFKAVVPLSPWYDQATRDFPSATPALVFVCTGDMTASVAGYALPVYDSLRSHKAYVEAAHVPVPGGDAHNCVRTGVANRPKLGKTVVSWLKLWLDGDPRYLPFVCGAQNPGTDAGFTNVWRSSCPF | not clears the plate |
| unnamed (protein) MHAVTSLGFVRASTAPGGRGWRRLAWALALGCGLGVGTTASYAQATGPNPSSAFLNASAGPLRVATESVSSFVTGFGGGTIYYPSTAGRYGVIAISPGFTATESSVAWLGRRLASHGFVAIVINTNSTLDQPASRATQLMAALRHATTGASSTVRARIDSTRQAVAGHSMGGGGTLIAAEDNPTLKAAIPLTPWNLSTSFNGVRVPTLIVGADGDTVASVAVHARPFYASLPASTFKAYAELNGASHFAPNTTNTPIGRYSVAWAKRFIDGDTRYSPFLCGAEHRAYATAAVFDRYNQNCPY | not clears the plate |
| unnamed (protein) MKRTLSLRRLWQAMAACASLCIAAAASAQVGPDPTSAGLEASAGPFTVSTSSVSSYVRGFGGGTIYYPSAAGQYGVVAISPGFTATQSSVAWLGRRLASHGLVVITINTNSVFDMPASRATQLMAALNHVVSGASSTIRSRVDSTRLAVSGHSMGGGGALIAAQNNPTLRASLPLTPWNNATNFDTVRVPTLIFGADGDTVASASSHARPFYASLPATTLKAYAELNNANHSTPNSTNTPIGRYSVAWMKRFVDADARYSPFLCGEPHRTYATPAVFDRYNQNCPY | not clears the plate |
| unnamed (protein) MRKIASALEIAALVLASFAAGCGDDGSSNDNPMGMTTQTANTGTPDTGVSTMVPPASTDAGTSTNVGNTNTGTLDAGMVGSTTGIKPAVDSGAVDTGVALGDASSDSGSVAVGDGGGVISPVTPIMRGDAPTKASATAKGPYKVMSYTSGFPVTLYGGGTIWYPTDAEAPFGAVAICPGFTAAQSSIMNWGPFLASHGIVALTMDTATPLDVVDQRADELMDALASIKSENDRAASPIYKKIDTMRLGVMGWSMGGGGTWLAADMHPELRSAVTFAGHIVTAVNQDVSMVHVPTLMFAGSADNAILGGGMSQGVYDGIPESTPKMVWEIMGAGHDVANDPANTSGAVGRYGLSWEKVYLEGDMRYRQFLLEMPPTASYFKTNVK | not clears the plate |
